According to paper PMC9695642, “Conservation of Importin α Function in Apicomplexans: Ivermectin and GW5074 Target Plasmodium falciparum Importin α and Inhibit Parasite Growth in Culture” (International Journal of Molecular Sciences, 2022):

T1: Plasmodium falciparum importin α, biotinylated GST fusion protein (Plasmodium falciparum, UniProt Q8IAW0 1-545, biotin (Sulfo-NHS-Biotin reagent))
T1 construct: importin α (IMPα) of Plasmodium falciparum; also called PfIMPα; IMPα from P. falciparum; source: recombinantly expressed, purified as GST fusion protein
T1 sequence (looked up): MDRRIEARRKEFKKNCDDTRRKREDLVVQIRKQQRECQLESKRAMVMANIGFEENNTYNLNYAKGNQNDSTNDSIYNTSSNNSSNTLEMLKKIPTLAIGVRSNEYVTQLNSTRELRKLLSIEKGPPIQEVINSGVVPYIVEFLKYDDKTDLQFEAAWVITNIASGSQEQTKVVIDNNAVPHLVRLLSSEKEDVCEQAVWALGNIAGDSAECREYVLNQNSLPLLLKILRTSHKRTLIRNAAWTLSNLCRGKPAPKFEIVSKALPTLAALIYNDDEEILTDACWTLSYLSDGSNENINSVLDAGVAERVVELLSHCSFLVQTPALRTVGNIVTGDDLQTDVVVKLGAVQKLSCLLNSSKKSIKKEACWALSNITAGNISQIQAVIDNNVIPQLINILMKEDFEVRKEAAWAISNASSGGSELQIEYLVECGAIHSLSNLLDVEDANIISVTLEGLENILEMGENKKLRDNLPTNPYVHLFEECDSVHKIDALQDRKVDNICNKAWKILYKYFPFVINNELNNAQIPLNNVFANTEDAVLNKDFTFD

B1: His-tagged Plasmodium falciparum importin α (natural protein, UniProt Q8IAW0 1-545, looked up)
chain: T1 sequence (looked up)
notes: importin α (IMPα) of Plasmodium falciparum; also called PfIMPα; His-tagged PfIMPα

Columns and labels:
Details in all cases: both partners purified
[1] = biological target: T1, Plasmodium falciparum importin α, …; experiment: AlphaScreen or HTRF; biotinylated IMPαs titrated against His-tagged NLS-GFPs (30 nM); apparent dissociation constant
[2] = biological target: T2, Toxoplasma gondii importin α, biotinylated GST fusion protein (Toxoplasma gondii, biotin (Sulfo-NHS-Biotin reagent)); experiment: as above
T2 construct: importin α (IMPα) of Toxoplasma gondii; also called TgIMPα; T. gondii IMPα; source: recombinantly expressed, purified as GST fusion protein

[3] = biological target: mammalian IMPα/β1 heterodimer from M. musculus (Mus musculus, UniProt P52293 1-529; P70168 1-876, biotin (Sulfo-NHS-Biotin reagent)); experiment: as above
[4] = biological target: T3, biotinylated GST-MmIMPβ1 (Mus musculus importin β1) (Mus musculus, UniProt P70168 1-876, biotin (Sulfo-NHS-Biotin reagent)); experiment: AlphaScreen or HTRF; His-tagged IMPαs (30 nM) titrated with increasing concentrations of biotinylated GST-MmIMPβ1 (legend: 5 nM)
T3 construct: Mus musculus importin β1 (MmIMPβ1); also called M. musculus IMPβ1; mammalian IMPβ1; source: recombinantly expressed, purified as GST fusion protein

| Binder | Kd [1] [nM] | Kd [2] [nM] | Kd [3] [nM] | Kd [4] [nM] |
| --- | --- | --- | --- | --- |
| PPKKKRKV (domain or fragment) [His-tagged T-ag-NLS-GFP (NLS of simian virus SV40 large tumour antigen fused to GFP)] | 2.9 | 3.9 | 2.8 |  |
| B1 |  |  |  | 1.3 |
